Source: paper PMC3688935, “Coordinated Binding of Single-Stranded and Double-Stranded DNA by UvsX Recombinase”

Target: UvsX recombinase (bacteriophage T4, UniProt P04529 1-391)
Assay: fluorescence quenching; no nucleotide cofactor; 20 mM Tris-HCl pH 7.4, 50 mM NaCl, 3 mM MgCl2, 25 C; DNA in nucleotides or base pairs; quadratic fit with 4 nt (bp) site size
Details: protein: recombinant; tags: none stated (pET27b, E. coli BL21(DE3)); label: AlexaFluor 546 on X (position 23); single strand

Sequence of UvsX recombinase (P04529 whole entry): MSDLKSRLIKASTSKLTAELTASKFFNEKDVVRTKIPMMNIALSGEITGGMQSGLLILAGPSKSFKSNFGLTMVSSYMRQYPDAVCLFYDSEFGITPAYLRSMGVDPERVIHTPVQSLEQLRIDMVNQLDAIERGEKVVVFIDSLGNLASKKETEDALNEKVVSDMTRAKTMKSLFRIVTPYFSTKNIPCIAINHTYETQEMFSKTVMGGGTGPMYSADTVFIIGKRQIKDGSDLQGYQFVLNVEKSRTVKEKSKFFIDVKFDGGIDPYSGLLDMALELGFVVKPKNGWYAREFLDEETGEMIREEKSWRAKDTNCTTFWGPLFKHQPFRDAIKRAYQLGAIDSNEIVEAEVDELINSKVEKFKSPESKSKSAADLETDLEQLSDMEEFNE

B1: dT22XT2 ssDNA (ssDNA)
DNA: TTTTTTTTTTTTTTTTTTTTTTTTT
modifications: X at position 23 = amino-modifier C2 dT
binding result: binds
